Measurements taken from publication PMC7866087, “Evaluation of Computationally Designed Peptides against TWEAK, a Cytokine of the Tumour Necrosis Factor Ligand Family” (International Journal of Molecular Sciences, 2021).

What was measured:
[1] = tested on: HT29 cells, Fn14 gene expression; experiment: Fn14 gene expression with TWEAK, HT29 (RT-PCR); assay type: cell-based, human; settings: HT29, TWEAK 25 ng/ml
Experimental: (§1) Figure 1 Characterization TWEAK-dependent/not dependent cells. (A) Representative images of Fn14 expression (pink) in BRV5, 435-P and HT29 cells labelled by immunofluorescence. The protein has similar expression in BRV5 and the positive control HT29 cells, and less expressed in 435-P. DAPI (blue) was used for nucleus identification. (B) RT-PCR analysis to quantify Fn14 gene expression of cells cultured in the presence (dark green) or absence (light green) of TWEAK (25 ng/mL) at 48 h. Up-regulation of Fn14 is observed only in HT29 and BRV5 cells. Bars and error bars represent the average and standard deviation as calculated from three replicates respectively. P values represented as: * - significant (Pvalue: 0.01 to 0.05) and **- very-significant (Pvalue: 0.001 to 0.01).
(§2) Since the transcriptional activation of Fn14 expression can be induced in cancer cells by the TWEAK-Fn14 interaction, either in a paracrine or autocrine manner, we investigated whether TWEAK transactivates Fn14 (TNFR2F12A) in BRV5 brain metastatic cells. We primed cells with TWEAK and analysed TNFR2F12A gene expression including in the analysis 435-Br1 cells, the first generation of brain metastatic cells BRV5.
Three different cell lines were used in this study: BRV5, MDA-MB 435 (435-P), and HT29. The BRV5 is a highly metastatic brain cell line, obtained in one of our laboratories by primary culture from a brain of a nude mouse inoculated with human 435-Br1 brain metastatic cells, as previously described and used as a model to test the peptides in cell cultures. […] The triple negative 435-P cell line is a useful human breast cancer model that expresses both epithelial and melanocytic markers, and was included as the parental cell from which 435-Br1 metastatic variant was initially originated (both cell lines kindly provided by Dr Fabra at IDIBELL Institute, Hospitalet de Llobregat, Spain). […]

[2] = tested on: HT29 cells, NIK expression; experiment: Time-course RT-PCR of NIK (MAP4K4), HT29; assay type: cell-based, human; settings: TWEAK, 6 to 24 h
[3] = tested on: TWEAK-Fn14 signalling pathway, BRV5 cells; experiment: Cell-based screening of pooled peptides, gene expression microarray in TWEAK-stimulated BRV5 cells; parameters: species or system human; settings: 6 h; for BIRC2 expression Z-Score / HSP90B1 expression Z-Score / IL6 expression Z-Score / JUN expression Z-Score / MAP4K4 expression Z-Score / MAPK14 expression Z-Score / NFKB2 expression Z-Score / TNFRSF12A expression Z-Score / TRAF2 expression Z-Score: BRV5 + TWEAK, normalized to NARS2
Experimental: To optimize resources and rationalize the analysis, we ran the screening by pooling the 50 peptides into six groups, i.e., Pool 1 to 6, containing […] peptides each and displaying similar MW (Supplementary Materials Table S1). We monitored the activity of pooled peptides on TWEAK-Fn14 signalling pathways following the design described in Material and Methods. BRV5 cells were cultured in the presence or absence of TWEAK and treated with peptides at different time points.
As a preliminary study, we performed an experiment with 435-P and BRV5 cells to assess the effect on the level of expression on the selected genes in cultures with or without TWEAK (Supplementary Materials Figure S2A). Negative controls without pool 1 peptides were included in the protocol to avoid unspecific biases in the inhibition ratio. To achieve optimal conditions to measure peptide activity, preventing peptide degradation in the culture medium, the effect of peptides was evaluated by priming cultures with peptide every hour (0–5 h), every two hours (0, 2, and 4 h) and every three hours (0 and 3 h). In these experiments, the housekeeping gene NARS2 was used to normalize gene expression.
(§3) Three different cell lines were used in this study: BRV5, MDA-MB 435 (435-P), and HT29. The BRV5 is a highly metastatic brain cell line, obtained in one of our laboratories by primary culture from a brain of a nude mouse inoculated with human 435-Br1 brain metastatic cells, as previously described and used as a model to test the peptides in cell cultures. […] The triple negative 435-P cell line is a useful human breast cancer model that expresses both epithelial and melanocytic markers, and was included as the parental cell from which 435-Br1 metastatic variant was initially originated (both cell lines kindly provided by Dr Fabra at IDIBELL Institute, Hospitalet de Llobregat, Spain). Finally, HT29 human colon carcinoma cells obtained from the European Type Culture Collection (ECACC 91072201) were used as a positive control of TWEAK dependent Fn14 over-expressing cells to evaluate TWEAK-Fn14 axis of brain metastatic variants.
Appropriate cell culture conditions were established as the controls needed in the expression of genes with and without peptides and with and without TWEAK activation, both as pools and individually (see Supplementary Materials Figure S2). The protocol started with the seeding of 125,000 cells/well in 500 µL of culture media supplemented with 10% fetal bovine serum (CM+FBS10%) in 24-well dishes for 24 h before removing FBS (CM-FBS). After overnight starvation in CM-FBS culture, different peptide treatment conditions (at final concentration of 450 µM) were established in the presence or absence of TWEAK (25 ng/mL final concentration) (Peprotech EC, Ltd., London, UK). Some cells were treated with peptides at a single, unique, initial dose (time 0) while other were treated with repeated doses to account for the effect cell-culture degradation. These include a repeated treatment every hour (i.e., […]), every two hours (time 0, 2, and 4) and every three hours (time 0 and 3)—see Supplementary Materials Figure S2 for diagrammatic depiction. At time 6 (after six hours) cells were lysed and RNA extracted for transcriptomic analyses (see next). Cell were culture for six hours as this was the time needed to achieve the highest upregulation of the TWEAK-Fn14 axis upon TWEAK treatment as shown in previous time-course RT-PCR experiments (see Figure 2).
RNA from cells was extracted 6 h after treatments by direct lysis on the well. The RNeasy Micro kit (Qiagen, Hilden, Germany) was used to isolate total RNA from cell lysate following manufacturer’s protocols including an additional step of digestion with DNase I (Qiagen, Hilden, Germany). Total RNA concentration was measured in a NanoDrop 1000 spectrophotometer (Thermo Scientific, Waltham, MA, USA). […]

[4] = tested on: 435-P cells, TNFR2F12A gene expression; experiment: Fn14 gene expression with TWEAK, 435-P (RT-PCR); assay type: cell-based, human; settings: for Normalized level of expression of Fn14 gene: TWEAK 25 ng/ml
Experimental: as §1, §2, §3

[5] = tested on: 435-Br1 cells, TNFR2F12A gene expression; experiment: Fn14 gene expression with TWEAK, 435-Br1 (RT-PCR); assay type: cell-based, human; settings: for Normalized level of expression of Fn14 gene: 435-Br1, TWEAK 25 ng/ml
Experimental: as §1, §2, §3

[6] = pools, BRV5 + TWEAK 25 ng/mL, 450 µM every hour

B1: tumour necrosis factor-like weak inducer of apoptosis (protein, UniProt O43508 94-249, looked up)
Tumor necrosis factor ligand …: SAPKGRKTRARRAIAAHYEVHPRPGQDGAQAGVDGTVSGWEEARINSSSPLRYNRQIGEFIVTRAGLYYLYCQVHFDEGKAVYLKLDLLVDGVLALRCLEEFSATAASSLGPQLRLCQVSGLLALRPGSSLRIRTLPWAHLKAAPFLTYFGLFQVH
[1]; technical replicate 1
  Normalized level of expression of Fn14 gene: 0.1964
[1]; technical replicate 2
  Normalized level of expression of Fn14 gene: 0.2154
[1]; technical replicate 3
  Normalized level of expression of Fn14 gene: 0.2052
[2]
  NIK expression: highest NIK expression, occurred 6 h after
[3]; BRV5 + TWEAK 25 ng/mL, peptides 450 µM every hour, versus T
  regulation of probe genes by pooled peptides: higher level of expression overall when compared to untreated and unstimulated cells
[3]; TWEAK, BRV5
  downstream activation of MAP4K4 (NIK), TRAF2, and BIRC2 (IAP2): occurred at 6 h in BRV5 cells
[3]; [6]
  BIRC2 mRNA expression (normalized to NARS2): 1.448
  HSP90B1 mRNA expression (normalized to NARS2): 8.392
  IL6 mRNA expression (normalized to NARS2): 0.0007818
  JUN mRNA expression (normalized to NARS2): 0.04566
  MAP4K4 mRNA expression (normalized to NARS2): 0.7707
  MAPK14 mRNA expression (normalized to NARS2): 0.5877
  NFKB2 mRNA expression (normalized to NARS2): 0.193
  TNFRSF12A mRNA expression (normalized to NARS2): 0.06934
  TRAF2 mRNA expression (normalized to NARS2): 0.0999
[3]; pools
  BIRC2 expression Z-Score: 1.233
  HSP90B1 expression Z-Score: -0.5008
  IL6 expression Z-Score: -1.234
  JUN expression Z-Score: -1.012
  MAP4K4 expression Z-Score: -0.5276
  MAPK14 expression Z-Score: 0.2377
  NFKB2 expression Z-Score: -0.03742
  TNFRSF12A expression Z-Score: -0.4905
  TRAF2 expression Z-Score: 1.245
[3]; pools, listed as T
  BIRC2 expression Z-Score: 1.2334
  HSP90B1 expression Z-Score: -0.5008
  IL6 expression Z-Score: -1.2337
  JUN expression Z-Score: -1.0121
  MAP4K4 expression Z-Score: -0.5276
  MAPK14 expression Z-Score: 0.2377
  NFKB2 expression Z-Score: -0.0374
  TNFRSF12A expression Z-Score: -0.4905
  TRAF2 expression Z-Score: 1.2452
[4]; TWEAK 25 ng/mL, 48 h
  TNFR2F12A gene expression: decreased TNFR2F12A gene expression in 435-P cells with regard to controls (p = 0.0246)
[4]; technical replicate 1
  Normalized level of expression of Fn14 gene: 0.1395
[4]; technical replicate 2
  Normalized level of expression of Fn14 gene: 0.1292
[4]; technical replicate 3
  Normalized level of expression of Fn14 gene: 0.1408
[5]; technical replicate 1
  Normalized level of expression of Fn14 gene: 0.1600
[5]; technical replicate 2
  Normalized level of expression of Fn14 gene: 0.1676
[5]; technical replicate 3
  Normalized level of expression of Fn14 gene: 0.1719
[5]; TWEAK 25 ng/mL, 48 h, 435-Br1
  TNFR2F12A gene expression: no differences were found
